Tests used:
[1] = molecular target: MSH2–MSH6 heterodimer (human, UniProt P43246 1-934; P52701 1-1360); assay: ELISA
[2] = molecular target: MSH2–MSH3 heterodimer (human, UniProt P43246 1-934; P20585 1-1137); assay: ELISA
MSH2–MSH3 heterodimer, sequence (P43246 whole entry, chain 1 of 2): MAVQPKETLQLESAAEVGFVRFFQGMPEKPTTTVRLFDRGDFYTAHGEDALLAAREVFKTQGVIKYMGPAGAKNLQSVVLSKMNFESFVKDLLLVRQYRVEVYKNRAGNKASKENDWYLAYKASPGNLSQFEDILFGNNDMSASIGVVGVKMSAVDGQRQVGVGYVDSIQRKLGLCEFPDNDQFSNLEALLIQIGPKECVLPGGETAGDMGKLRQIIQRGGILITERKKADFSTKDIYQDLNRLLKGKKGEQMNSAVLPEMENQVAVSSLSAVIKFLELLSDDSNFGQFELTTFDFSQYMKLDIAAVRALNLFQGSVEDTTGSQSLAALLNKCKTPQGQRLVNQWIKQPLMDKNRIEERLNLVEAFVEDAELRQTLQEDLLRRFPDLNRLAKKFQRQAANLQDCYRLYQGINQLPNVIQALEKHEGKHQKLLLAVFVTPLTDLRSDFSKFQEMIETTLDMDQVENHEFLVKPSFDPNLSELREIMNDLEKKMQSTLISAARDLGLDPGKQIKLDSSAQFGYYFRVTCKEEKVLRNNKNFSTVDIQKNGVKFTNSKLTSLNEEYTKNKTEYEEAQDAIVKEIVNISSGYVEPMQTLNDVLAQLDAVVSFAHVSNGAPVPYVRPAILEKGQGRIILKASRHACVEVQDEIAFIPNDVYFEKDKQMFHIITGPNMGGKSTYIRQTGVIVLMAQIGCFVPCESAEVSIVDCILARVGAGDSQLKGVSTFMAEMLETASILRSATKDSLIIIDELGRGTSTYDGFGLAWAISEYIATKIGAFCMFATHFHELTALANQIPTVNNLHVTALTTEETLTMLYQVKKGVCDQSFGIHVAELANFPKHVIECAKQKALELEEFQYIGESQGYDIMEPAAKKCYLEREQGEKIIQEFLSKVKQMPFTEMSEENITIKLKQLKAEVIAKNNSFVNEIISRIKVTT
MSH2–MSH3 heterodimer, sequence (P20585 whole entry, chain 2 of 2): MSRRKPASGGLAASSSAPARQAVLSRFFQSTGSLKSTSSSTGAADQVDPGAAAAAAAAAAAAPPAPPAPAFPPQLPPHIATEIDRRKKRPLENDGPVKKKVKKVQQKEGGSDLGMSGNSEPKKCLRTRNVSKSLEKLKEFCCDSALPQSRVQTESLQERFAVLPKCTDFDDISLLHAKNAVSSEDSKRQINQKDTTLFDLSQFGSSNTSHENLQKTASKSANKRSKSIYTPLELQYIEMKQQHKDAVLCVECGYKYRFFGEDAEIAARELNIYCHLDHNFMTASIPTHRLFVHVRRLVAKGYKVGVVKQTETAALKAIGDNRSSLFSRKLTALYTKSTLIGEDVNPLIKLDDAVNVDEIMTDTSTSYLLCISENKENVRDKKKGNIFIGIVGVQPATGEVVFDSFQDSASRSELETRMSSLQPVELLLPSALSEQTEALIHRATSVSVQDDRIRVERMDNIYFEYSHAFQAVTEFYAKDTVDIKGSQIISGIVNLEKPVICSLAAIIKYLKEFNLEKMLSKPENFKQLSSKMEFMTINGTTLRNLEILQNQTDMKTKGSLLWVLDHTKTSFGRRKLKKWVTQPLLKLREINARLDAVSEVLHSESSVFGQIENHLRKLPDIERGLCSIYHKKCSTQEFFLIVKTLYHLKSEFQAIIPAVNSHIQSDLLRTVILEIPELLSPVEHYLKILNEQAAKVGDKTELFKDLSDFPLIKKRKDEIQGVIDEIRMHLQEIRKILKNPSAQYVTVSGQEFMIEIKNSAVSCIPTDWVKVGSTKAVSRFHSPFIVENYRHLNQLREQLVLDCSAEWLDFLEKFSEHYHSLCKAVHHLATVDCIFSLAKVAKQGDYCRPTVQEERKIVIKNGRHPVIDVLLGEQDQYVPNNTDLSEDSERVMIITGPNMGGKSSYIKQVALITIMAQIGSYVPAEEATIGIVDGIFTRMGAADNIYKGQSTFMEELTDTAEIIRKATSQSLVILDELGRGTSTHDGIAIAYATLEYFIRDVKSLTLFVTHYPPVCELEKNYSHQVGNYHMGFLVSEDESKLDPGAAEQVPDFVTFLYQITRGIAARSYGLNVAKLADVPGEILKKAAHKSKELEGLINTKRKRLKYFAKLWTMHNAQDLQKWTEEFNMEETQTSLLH

MSH2–MSH6 heterodimer, sequence (P43246 whole entry, chain 1 of 2): as the sequence (P43246 whole entry, chain 1 of 2) above
MSH2–MSH6 heterodimer, sequence (P52701 whole entry, chain 2 of 2): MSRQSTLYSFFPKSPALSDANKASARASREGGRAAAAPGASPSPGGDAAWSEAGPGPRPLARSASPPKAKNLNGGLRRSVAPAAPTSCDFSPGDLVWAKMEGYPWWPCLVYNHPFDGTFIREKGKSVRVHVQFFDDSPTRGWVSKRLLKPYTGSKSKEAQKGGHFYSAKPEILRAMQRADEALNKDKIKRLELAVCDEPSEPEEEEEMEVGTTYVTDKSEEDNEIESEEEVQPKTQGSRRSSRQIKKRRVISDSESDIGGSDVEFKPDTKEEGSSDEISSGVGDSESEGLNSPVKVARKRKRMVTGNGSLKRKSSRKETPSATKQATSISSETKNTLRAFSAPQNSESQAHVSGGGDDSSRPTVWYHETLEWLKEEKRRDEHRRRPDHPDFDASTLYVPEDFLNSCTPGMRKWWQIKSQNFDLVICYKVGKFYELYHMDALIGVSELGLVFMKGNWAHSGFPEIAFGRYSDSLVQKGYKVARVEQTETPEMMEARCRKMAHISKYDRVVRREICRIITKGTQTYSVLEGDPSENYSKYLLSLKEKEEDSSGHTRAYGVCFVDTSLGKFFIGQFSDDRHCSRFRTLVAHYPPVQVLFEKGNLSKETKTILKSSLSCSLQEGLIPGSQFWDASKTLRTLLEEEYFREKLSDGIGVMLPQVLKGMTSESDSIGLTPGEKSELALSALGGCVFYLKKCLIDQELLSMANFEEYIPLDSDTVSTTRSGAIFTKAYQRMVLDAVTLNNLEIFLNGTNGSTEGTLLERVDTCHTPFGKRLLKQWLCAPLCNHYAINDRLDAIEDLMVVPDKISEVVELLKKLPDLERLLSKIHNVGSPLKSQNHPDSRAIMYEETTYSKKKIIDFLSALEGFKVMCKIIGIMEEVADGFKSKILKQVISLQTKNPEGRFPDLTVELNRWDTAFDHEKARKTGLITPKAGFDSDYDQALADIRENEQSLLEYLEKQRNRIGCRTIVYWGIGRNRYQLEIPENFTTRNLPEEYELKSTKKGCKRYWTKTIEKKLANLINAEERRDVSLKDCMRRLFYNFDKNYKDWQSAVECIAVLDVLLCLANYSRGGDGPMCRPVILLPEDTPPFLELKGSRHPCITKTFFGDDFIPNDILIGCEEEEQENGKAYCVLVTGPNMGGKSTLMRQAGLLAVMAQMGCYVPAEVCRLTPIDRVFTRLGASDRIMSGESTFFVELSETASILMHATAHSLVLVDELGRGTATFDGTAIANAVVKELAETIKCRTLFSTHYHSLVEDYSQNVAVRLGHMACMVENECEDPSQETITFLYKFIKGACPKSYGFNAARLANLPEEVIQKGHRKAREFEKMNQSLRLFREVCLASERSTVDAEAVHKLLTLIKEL

B1: recombinant human DNA polymerase η, (His)6-tagged (enzyme, UniProt Q9Y253 1-713, looked up)
chain: MATGQDRVVALVDMDCFFVQVEQRQNPHLRNKPCAVVQYKSWKGGGIIAVSYEARAFGVTRSMWADDAKKLCPDLLLAQVRESRGKANLTKYREASVEVMEIMSRFAVIERASIDEAYVDLTSAVQERLQKLQGQPISADLLPSTYIEGLPQGPTTAEETVQKEGMRKQGLFQWLDSLQIDNLTSPDLQLTVGAVIVEEMRAAIERETGFQCSAGISHNKVLAKLACGLNKPNRQTLVSHGSVPQLFSQMPIRKIRSLGGKLGASVIEILGIEYMGELTQFTESQLQSHFGEKNGSWLYAMCRGIEHDPVKPRQLPKTIGCSKNFPGKTALATREQVQWWLLQLAQELEERLTKDRNDNDRVATQLVVSIRVQGDKRLSSLRRCCALTRYDAHKMSHDAFTVIKNCNTSGIQTEWSPPLTMLFLCATKFSASAPSSSTDITSFLSSDPSSLPKVPVTSSEAKTQGSGPAVTATKKATTSLESFFQKAAERQKVKEASLSSLTAPTQAPMSNSPSKPSLPFQTSQSTGTEPFFKQKSLLLKQKQLNNSSVSSPQQNPWSNCKALPNSLPTEYPGCVPVCEGVSKLEESSKATPAEMDLAHNSQSMHASSASKSVLEVTQKATPNPSLLAAEDQVPCEKCGSLVPVWDMPEHMDYHFALELQKSFLQPHSSNPQVVSAVSHQGKRNPKSPLACTNKRPRPEGMQTLESFFKPLTH
Q: With B1 as the binder, how does the Kd [1] read?
A: Its Kd is 6.5 ± 0.8 nM.

Q: What about the Kd [2] of the same binder?
A: The Kd was 7.4 ± 1 nM.

From PMC2213055 (The Journal of Experimental Medicine, 2005)
